Source: article doi:10.1101/2022.05.23.492800 (2022)

How the values were obtained:
Assay in all cases: multimer staining
[1] = biological target: T1, SARS-CoV-2 Spike protein peptide on HLA-A*24:02 (human)
T1 peptide: QYIKWPWYIW

[2] = biological target: T2, SARS-CoV-2 Spike protein peptide on HLA-A*23:01 (human)
T2 peptide: QYIKWPWYIW

[3] = biological target: T3, SARS-CoV-1 Spike protein peptide on HLA-A*24:02 (human)
T3 peptide: QYIKWPWYVW

Measured: binding result

B1: TCRQYI (TCR)
alpha TRAV20*01 TRAJ32*01 CDR3: CAALNYGGATNKLIF
beta TRBV4-3*01 TRBJ2-7*01 CDR3: CASSPSGGAYEQYF
recognises: all assays above
